Reference: US6448376

Target: LexA-DP-1 (pLEX(HIS).DP-1: complete bacterial LexA protein fused to DP-1 residues 59 to 410) (bacterial; murine) (UniProt Q08639)
Assay: cell-based or functional assay

Sequence of UniProt Q08639 (Q08639 59-410): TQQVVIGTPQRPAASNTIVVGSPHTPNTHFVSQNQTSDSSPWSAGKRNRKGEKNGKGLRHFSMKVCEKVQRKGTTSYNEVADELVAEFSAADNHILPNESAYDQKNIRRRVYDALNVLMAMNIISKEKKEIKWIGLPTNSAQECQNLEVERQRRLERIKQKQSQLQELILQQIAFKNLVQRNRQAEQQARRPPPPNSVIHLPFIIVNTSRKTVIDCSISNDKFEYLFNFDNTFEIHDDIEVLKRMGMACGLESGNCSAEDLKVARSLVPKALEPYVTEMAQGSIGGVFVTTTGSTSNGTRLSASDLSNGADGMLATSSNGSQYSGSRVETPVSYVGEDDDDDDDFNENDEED

Substance: GAD-E2F-5 (pGAD.E2F-5: entire murine E2F-5 as a hybrid with the GAL4 activation domain 768-881) (from UniProt P04386 768-881)
- transcriptional activity of the E2F site reporter p4xWT CYC1 in yeast: > 6 fold
